Experimental data reported in article PMC4857006.

Tests used:
mTdp2cat [1] = biological target: T1, mTdp2cat (Mus musculus, UniProt Q9JJX7 118-370); experiment: X-ray crystallography; Mn2+ soak (5 mM MnCl2); Crystals: hTdp2cat-DNA in 90 mM Tris pH 7.0, 27% PEG600, 9% glycerol, 450 mM (NH4)2SO4; mTdp2cat-DNA as in ref 20. Proteolysis buffer not in the material. Trp f
T1 sequence: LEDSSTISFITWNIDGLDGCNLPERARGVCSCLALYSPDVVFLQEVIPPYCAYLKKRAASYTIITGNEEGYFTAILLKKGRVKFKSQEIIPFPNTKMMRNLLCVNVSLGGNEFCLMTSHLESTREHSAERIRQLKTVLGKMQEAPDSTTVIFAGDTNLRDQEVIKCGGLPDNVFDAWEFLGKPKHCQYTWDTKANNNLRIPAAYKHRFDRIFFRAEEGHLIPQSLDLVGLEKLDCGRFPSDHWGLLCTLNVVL

hTdp2cat [2] = biological target: T2, hTdp2cat (Homo sapiens, UniProt O95551 108-362); experiment: X-ray crystallography (3.2 A); product complex; Crystals: hTdp2cat-DNA in 90 mM Tris pH 7.0, 27% PEG600, 9% glycerol, 450 mM (NH4)2SO4; mTdp2cat-DNA as in ref 20. Proteolysis buffer not in the material. Trp f
T2 sequence: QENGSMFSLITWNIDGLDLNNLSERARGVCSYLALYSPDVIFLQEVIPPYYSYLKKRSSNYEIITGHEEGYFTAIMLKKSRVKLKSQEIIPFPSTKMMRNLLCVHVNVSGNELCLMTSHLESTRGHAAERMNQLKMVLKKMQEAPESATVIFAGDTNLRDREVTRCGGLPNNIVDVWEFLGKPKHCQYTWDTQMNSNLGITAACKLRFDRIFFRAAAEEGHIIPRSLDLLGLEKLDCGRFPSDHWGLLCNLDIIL

mTdp2cat [3] = biological target: T1, mTdp2cat; experiment: X-ray crystallography (1.55 A); product complex; Crystals: hTdp2cat-DNA in 90 mM Tris pH 7.0, 27% PEG600, 9% glycerol, 450 mM (NH4)2SO4; mTdp2cat-DNA as in ref 20. Proteolysis buffer not in the material. Trp f
mTdp2cat [4] = biological target: T1, mTdp2cat; experiment: X-ray crystallography (1.43 A); Mg2+; product complex; Crystals: hTdp2cat-DNA in 90 mM Tris pH 7.0, 27% PEG600, 9% glycerol, 450 mM (NH4)2SO4; mTdp2cat-DNA as in ref 20. Proteolysis buffer not in the material. Trp f
mTdp2cat [5] = biological target: T1, mTdp2cat; experiment: limited proteolysis protection (trypsin, chymotrypsin); Mg2+; more protection than Mg2+ alone; Crystals: hTdp2cat-DNA in 90 mM Tris pH 7.0, 27% PEG600, 9% glycerol, 450 mM (NH4)2SO4; mTdp2cat-DNA as in ref 20. Proteolysis buffer not in the material. Trp f
hTdp2cat [6] = biological target: T2, hTdp2cat; experiment: limited proteolysis protection (chymotrypsin); with or without Mg2+; Crystals: hTdp2cat-DNA in 90 mM Tris pH 7.0, 27% PEG600, 9% glycerol, 450 mM (NH4)2SO4; mTdp2cat-DNA as in ref 20. Proteolysis buffer not in the material. Trp f

B1: 5'-P dC DNA (dsDNA)
DNA 1: CCGAATTCG
DNA 2: CCGAATTCG
modifications: 5'-phosphate
B1: binds (mTdp2cat [1]); binds (hTdp2cat [2]).

B2: 5'-P dA DNA (dsDNA)
DNA 1: ACGAATTCG
DNA 2: ACGAATTCG
modifications: 5'-phosphate
B2: binds (mTdp2cat [3]).

B3: 5'-P epsilonA DNA (dsDNA)
DNA 1: ACGAATTCG
DNA 2: ACGAATTCG
modifications: 5'-phosphate; 5'-terminal A is 1-N6-ethenoadenine
B3: binds (mTdp2cat [4]).

B4: 12nt DNA (dsDNA)
DNA 1: CATCCGAATTCG
DNA 2: CATCCGAATTCG
modifications: 5'-phosphate
B4: binds (mTdp2cat [5]); binds (hTdp2cat [6]).
